Target: T1, biotinylated CD59 (Homo sapiens, UniProt P13987)
T1 construct: Recombinant soluble human CD59 with an additional C-terminal cysteine residue
T1 sequence (P13987 26-102 limits assumed): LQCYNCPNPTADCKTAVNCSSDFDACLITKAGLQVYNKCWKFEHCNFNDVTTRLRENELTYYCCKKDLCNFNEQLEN
Assay: mRNA-display cyclic peptide screen against CD59-biotin, NGS abundance after 6th selection round
Details: for Percentage Seq I: counts normalised by total counts of sample Seq I; for Percentage Seq I / Percentage Seq II: percentage of the pool; for Percentage Seq I / Percentage Seq II / Percentage Average / Percentage of the pool, averaged across the two sequencing samples / Percentage of the pool, Seq I / Percentage of the pool, Seq II: sheet R6; for Percentage Seq II: counts normalised by total counts of sample Seq II; for Percentage Average: percentage of the pool averaged across the two sequencing samples; for Counts Seq I / Counts Seq II: raw NGS counts of peptide sequence; for Counts Seq I: sequencing sample Seq I; for Counts Seq I / Counts Seq II / Counts (raw counts for peptide sequence), Seq I / Counts (raw counts for peptide sequence), Seq II: sheet R6 (6th selection round); for Counts Seq II: sequencing sample Seq II; for Counts (raw counts for peptide sequence), Seq I: NGS sample Seq I; for Counts (raw counts for peptide sequence), Seq II: NGS sample Seq II; for Percentage of the pool, averaged across the two sequencing samples: average of Seq I and Seq II; for Percentage of the pool, Seq I: counts normalised by total counts of NGS sample Seq I; for Percentage of the pool, Seq II: counts normalised by total counts of NGS sample Seq II
Excerpt: To discover novel non‐protein CD59 ligands, we screened a library of 10^12 cyclic peptides against CD59 using mRNA‐display (Figure 2a).^[ [23], [24], [25], [26], [27], [28], [29] ^] Briefly, an mRNA library was designed in which the start codon was reprogrammed from Met to N‐chloroacetyl‐D‐Tyr (ClAc‐D‐Tyr), followed by 10–12 randomly encoded natural amino acids, a Cys residue, a (GlySer)3 linker, and a stop codon. […] The total library diversity was 1.51 × 10^13 molecules, comprising 5.02 × 10^12 molecules of each macrocycle size, covering a subset of the maximum theoretical diversity of this library design. Following in vitro translation, ClAc‐D‐Tyr spontaneously reacts with either the C‐terminal Cys or a Cys in the random region, yielding macrocyclic thioether peptides. Hits from the library were identified through iterative enrichment and amplification against biotinylated CD59, then immobilized on streptavidin beads. Fifteen hit sequences (CP‐01 to CP‐15), enriched with abundance >1% relative to the total pool of recovered binders after the 6th round of selection, were synthesized by solid phase peptide synthesis (SPPS), without the (Gly‐Ser)3 linker.
Figure 2 Discovery of macrocyclic peptide ligands with nanomolar CD59 affinity using mRNA display. a) The selection process. PCR = polymerase chain reaction, SPPS = solid phase peptide synthesis. b) Table showing details of the peptides with nanomolar affinity for CD59 as well as the binding affinity of the lead inhibitor of CD59, rILYd4. K D values are presented as the average of three technical replicates ± SEM. Structures of all peptides and SPR sensograms are presented in Figures S1 and S2. *indicates the presented sequences are the variable regions of these cyclic peptides; each is flanked by an N‐terminal Ac‐D‐Tyr cyclized to a C‐terminal Cys. R6 abundance (%) is defined as (the given number of NGS reads for a given sequence/the total number of reads of unique sequences observed in NGS)*100 following the 6th selection round. c) Representative sensogram of the interaction between CP‐06 with immobilized CD59 by SPR analysis. Inset showing the equilibrium binding curve of CP‐06 to CD‐59. Below in the box are the association and dissociation rate constants of CP‐06. Concentrations are plotted in descending order from 800‐3.1 nM in line with their position on the legend. […] (nM)'; the box with Kon/Koff has no label of its own / ILYd4: the label may be cut off at the left edge (possibly 'rILYd4') / CP-02, KD: 15.3 ± 0.2, small print, 3 or 8 uncertain / CP-03, KD: 23.4 ± 0.7, small print / CP-06, KD: 11.3 ± 0.0, small print, 3 or 8 uncertain / CP-13, KD: 10.8 ± 0.7, small print, 8 or 6 uncertain / ILYd4, KD: 48.3 ± 1.1, small print, 8 and 3 uncertain
The mRNA-display cyclic peptide screen was performed against CD59-biotin by T.E.M: DNA templates for transcription were generated by PCR in a similar manner to that previously described.^2 RNA oligonucleotides were transcribed from the DNA templates using T7 RNA polymerase and purified by phenol/chloroform extraction followed by ethanol precipitation. Oligonucleotide concentrations were determined spectroscopically by absorbance at 260 nm. In the first selection round a 1:1:1 molar ratio of NNK10/NNK11/NNK12 was used. The procedure for selection rounds 2-6 is described below; round 1 was conducted at twice the scale.
RNA encoding for the peptide library ligated to a puromycin-modified oligonucleotide was […] (final [RNA] = 2.5 µM) using a customised PURE express kit (lacking release factor 1 and methionine, supplemented with […] initiator tRNA acylated with N-chloroacetyl-d-tyrosine prepared as previously described)^3 in a final volume of 5.6 µL for 1 hour at 37 °C.
This mixture was incubated at 42 °C for 1 hour before being diluted to 500 µL with PBS (10 mM Na-PO4 pH 7.4, 2.7 mM KCl, 137 mM NaCl) and 0.5 µL taken for subsequent use in qPCR. […]

Sequence	Percentage Seq I [%]	Percentage Seq II [%]	Percentage Average [%]	Counts Seq I	Counts Seq II	Counts (raw counts for peptide sequence), Seq I	Counts (raw counts for peptide sequence), Seq II	Percentage of the pool, averaged across the two sequencing samples [%]	Percentage of the pool, Seq I [%]	Percentage of the pool, Seq II [%]
FATGNRDHTRG	0.027	0.014	0.020	117	6					
VWGNRWTRIYW	0.037	0.035	0.036	161	15					
YLFGDRFSVRG	0.094	0.100	0.097	412	43					
ILGSRDTIKYW	0.118	0.167	0.142	515	72					
CFRNRIDLIS						49	5	0.011	0.011	0.012
CFYQRTLGTTAS	0.018	0.021	0.019	79	9					
CYGGRTFIYAWS	8.492	8.097	8.295	37156	3489					
WILGSRWWTQT	0.032	0.030	0.031	139	13					
LYSHPRSLCSFS	0.082	0.091	0.086	357	39					
FIRGNSTSVLFAAAAAAARTGGG						40	7	0.013	0.009	0.016
SSWAQLPCRS	0.041	0.051	0.046	180	22					
SSALERIGKCP	0.227	0.211	0.219	991	91					
YGASPTSLCSGI	0.166	0.186	0.176	727	80					
VAHGSKNSQFW	0.349	0.325	0.337	1526	140					
TLSTNRDLIRLLAAAAAAARTGGG						57	9	0.017	0.013	0.021
IARGDRTFSFG	0.013	0.035	0.024	57	15					
CFSRRVTYPHQV						31	8	0.013	0.007	0.019
CFARRLSASLGT	0.033	0.021	0.027	145	9					
CFLKRDRSASI						56	7	0.015	0.013	0.016
FRGRNDICTH						73	8	0.018	0.017	0.019

Source: PMC12207370, “Macrocyclic Peptide Probes for Immunomodulatory Protein CD59: Potent Modulators of Bacterial Toxin Activity and Antibody‐Dependent Cytotoxicity” (Angewandte Chemie (International Ed. in English), 2025)
